Publication PMC2734569, “Functional mapping of the fission yeast DNA polymerase δ B-subunit Cdc1 by site-directed and random pentapeptide insertion mutagenesis” (BMC Molecular Biology, 2009)

Experiments:
Experiment in all cases: two-hybrid; LexA-Cdc1 bait (pBTM116 or pBTM116BN) with Gal4-Pol3 prey and co-expressed c-myc-tagged Cdc27 (pAA-Cdc27) in S. cerevisiae CTY10-5d; ONPG liquid culture beta-galactosidase assay, mean of triplicates, as percent of wild-type Cdc1
Conditions in all cases: partners not purified
[1] = target: T1, Cdc1-J21 (Schizosaccharomyces pombe, UniProt P87324 1-462, Leu-GlyValProGlnLeu-Asp)
T1 construct: Cdc1, S. pombe, with a pentapeptide inserted after residue 275; source: yeast two-hybrid fusion, in S. cerevisiae CTY10-5d
T1 sequence (looked up): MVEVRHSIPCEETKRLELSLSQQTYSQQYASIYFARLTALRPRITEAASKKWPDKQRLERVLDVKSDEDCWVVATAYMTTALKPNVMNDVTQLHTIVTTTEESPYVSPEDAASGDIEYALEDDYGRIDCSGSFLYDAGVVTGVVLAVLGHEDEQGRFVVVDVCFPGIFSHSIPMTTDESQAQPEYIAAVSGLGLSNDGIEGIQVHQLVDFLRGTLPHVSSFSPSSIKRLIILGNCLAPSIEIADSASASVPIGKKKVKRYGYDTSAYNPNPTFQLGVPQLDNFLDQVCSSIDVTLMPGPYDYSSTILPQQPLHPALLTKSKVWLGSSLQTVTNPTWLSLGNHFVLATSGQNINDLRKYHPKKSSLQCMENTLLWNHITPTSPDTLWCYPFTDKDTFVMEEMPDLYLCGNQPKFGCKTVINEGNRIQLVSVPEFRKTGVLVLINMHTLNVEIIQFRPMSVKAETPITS

[2] = target: T2, Cdc1-A5 (Schizosaccharomyces pombe, UniProt P87324 1-462, Asn328Ala)
T2 construct: Cdc1, S. pombe, point mutant; source: yeast two-hybrid fusion, in S. cerevisiae CTY10-5d
T2 sequence (looked up): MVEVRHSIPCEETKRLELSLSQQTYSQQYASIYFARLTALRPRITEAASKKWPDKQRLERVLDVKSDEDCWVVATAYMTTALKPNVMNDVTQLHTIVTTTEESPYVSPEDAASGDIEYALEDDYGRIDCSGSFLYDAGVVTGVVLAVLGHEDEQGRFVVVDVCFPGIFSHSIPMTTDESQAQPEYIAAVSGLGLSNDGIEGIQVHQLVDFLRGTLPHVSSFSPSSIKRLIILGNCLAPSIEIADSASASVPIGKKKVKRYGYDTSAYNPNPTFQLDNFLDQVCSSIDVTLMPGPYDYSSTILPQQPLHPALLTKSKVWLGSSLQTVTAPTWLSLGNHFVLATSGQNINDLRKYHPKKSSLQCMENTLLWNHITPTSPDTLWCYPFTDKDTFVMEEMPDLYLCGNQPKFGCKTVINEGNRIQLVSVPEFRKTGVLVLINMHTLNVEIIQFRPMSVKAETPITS

[3] = target: T3, Cdc1-E2 (Schizosaccharomyces pombe, UniProt P87324 1-26)
T3 construct: Cdc1, S. pombe, truncated after amino acid 26 by a 16 nt insertion; residues coded by the 16 nt insertion before the stop codon (printed as GlyValProLysTer); source: yeast two-hybrid fusion, in S. cerevisiae CTY10-5d
T3 chain: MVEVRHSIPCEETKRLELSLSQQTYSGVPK

B1: Pol3 (fission yeast DNA polymerase delta catalytic subunit) (natural protein, Schizosaccharomyces pombe, UniProt P30316 1-1086, looked up)
chain: MTDRSSNEGVVLNKENYPFPRRNGSIHGEITDVKRRRLSERNGYGDKKGSSSKEKTSSFEDELAEYASQLDQDEIKSSKDQQWQRPALPAINPEKDDIYFQQIDSEEFTEGSVPSIRLFGVTDNGNSILVHVVGFLPYFYVKAPVGFRPEMLERFTQDLDATCNGGVIDHCIIEMKENLYGFQGNEKSPFIKIFTTNPRILSRARNVFERGEFNFEELFPVGVGVTTFESNTQYLLRFMIDCDVVGMNWIHLPASKYQFRYQNRVSNCQIEAWINYKDLISLPAEGQWSKMAPLRIMSFDIECAGRKGVFPDPSIDPVIQIASIVTQYGDSTPFVRNVFCVDTCSQIVGTQVYEFQNQAEMLSSWSKFVRDVDPDVLIGYNICNFDIPYLLDRAKSLRIHNFPLLGRIHNFFSVAKETTFSSKAYGTRESKTTSIPGRLQLDMLQVMQRDFKLRSYSLNAVCSQFLGEQKEDVHYSIITDLQNGTADSRRRLAIYCLKDAYLPQRLMDKLMCFVNYTEMARVTGVPFNFLLARGQQIKVISQLFRKALQHDLVVPNIRVNGTDEQYEGATVIEPIKGYYDTPIATLDFSSLYPSIMQAHNLCYTTLLDSNTAELLKLKQDVDYSVTPNGDYFVKPHVRKGLLPIILADLLNARKKAKADLKKETDPFKKAVLDGRQLALKVSANSVYGFTGATNGRLPCLAISSSVTSYGRQMIEKTKDVVEKRYRIENGYSHDAVVIYGDTDSVMVKFGVKTLPEAMKLGEEAANYVSDQFPNPIKLEFEKVYFPYLLISKKRYAGLFWTRTDTYDKMDSKGIETVRRDNCPLVSYVIDTALRKMLIDQDVEGAQLFTKKVISDLLQNKIDMSQLVITKALSKTDYAAKMAHVELAERMRKRDAGSAPAIGDRVAYVIIKGAQGDQFYMRSEDPIYVLENNIPIDAKYYLENQLSKPLLRIFEPILGEKASSLLHGDHTRTISMAAPSVGGIMKFAVKVETCLGCKAPIKKGKTALCENCLNRSAELYQRQVAQVNDLEVRFARLWTQCQRCQGSMHQDVICTSRDCPIFYMRIAEHKKLQQSVDLLKRFDEMSW
notes: DNA polymerase delta catalytic subunit Pol3, S. pombe; prey plasmid named pACT-Pol3 in the results and pGAD2F-Pol3 in the methods; also called Gal4-Pol3; pACT-Pol3; source: yeast two-hybrid fusion, in S. cerevisiae CTY10-5d
What does the source list for B1?
two-hybrid beta-galactosidase activity, % of wild-type Cdc1 [1]: < 1%; two-hybrid beta-galactosidase activity, % of wild-type Cdc1 [2]: 4%; two-hybrid beta-galactosidase activity, % of wild-type Cdc1 [3]: < 1%
